Measured values as given in US20160068860A1, “TRANSGENIC PLANTS” (CONSEJO SUPERIOR DE INVESTIGACIONES CIENTIFICAS (CSIC), priority 2013, published 2016).

How the values were obtained:
[1] = target: PYR/PYL receptors in the presence of clade A PP2Cs (ternary complexes); details: ternary complexes in the presence of certain clade A PP2Cs; read-out: Kd for ABA; cited from earlier work
[2] = target: dimeric PYR/PYL receptors; details: read-out: Kd for ABA; cited from earlier work
[3] = target: monomeric PYR/PYL receptors; details: read-out: Kd for ABA; cited from earlier work
[4] = target: T1, PP2CA (clade A protein phosphatase 2C, At3g11410) (Arabidopsis thaliana, UniProt P49598 1-399, limits assumed); experiment: cell-based or functional assay
T1 sequence (looked up): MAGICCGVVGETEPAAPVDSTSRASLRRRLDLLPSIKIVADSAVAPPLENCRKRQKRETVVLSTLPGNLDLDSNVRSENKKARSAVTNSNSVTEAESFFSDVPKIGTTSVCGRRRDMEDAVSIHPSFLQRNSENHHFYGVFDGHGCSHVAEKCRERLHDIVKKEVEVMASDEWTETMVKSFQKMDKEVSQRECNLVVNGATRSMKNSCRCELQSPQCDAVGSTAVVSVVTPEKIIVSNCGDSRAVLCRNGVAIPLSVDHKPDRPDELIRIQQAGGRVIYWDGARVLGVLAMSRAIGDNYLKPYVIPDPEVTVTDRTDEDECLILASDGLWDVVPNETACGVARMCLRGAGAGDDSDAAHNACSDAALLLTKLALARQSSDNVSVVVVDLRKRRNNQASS

[5] = target: T2, HAB1 (clade A protein phosphatase 2C) (Arabidopsis thaliana, UniProt Q9CAJ0 23-511, limits assumed); experiment: cell-based or functional assay
T2 sequence (looked up): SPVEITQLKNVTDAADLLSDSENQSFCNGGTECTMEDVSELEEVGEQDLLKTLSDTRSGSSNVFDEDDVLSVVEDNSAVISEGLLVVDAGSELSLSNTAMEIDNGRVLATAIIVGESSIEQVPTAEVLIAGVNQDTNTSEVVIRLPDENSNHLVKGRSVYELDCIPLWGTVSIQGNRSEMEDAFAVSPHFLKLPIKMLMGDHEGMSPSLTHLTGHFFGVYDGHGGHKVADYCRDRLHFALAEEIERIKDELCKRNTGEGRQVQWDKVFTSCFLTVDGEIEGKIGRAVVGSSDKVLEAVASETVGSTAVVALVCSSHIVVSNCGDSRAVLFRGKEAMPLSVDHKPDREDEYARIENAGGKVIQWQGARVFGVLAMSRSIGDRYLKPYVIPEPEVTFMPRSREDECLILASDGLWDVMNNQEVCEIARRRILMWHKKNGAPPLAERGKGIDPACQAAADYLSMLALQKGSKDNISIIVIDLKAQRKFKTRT

PP2CA [6] = experiment: Yeast two hybrid (Y2H) growth assay with PP2CA; assay type: cell-based, Arabidopsis; details: for interaction with PP2CA in Y2H assay: absence of ABA, growth on medium lacking His and Ade
Method: We conducted error-prone PCR mutagenesis by amplification of the PYL4 open reading frame using the following primers: FPYL4Ncol, 5″-GCAGCAGCCATGGTTGCCG TTCACCGTCCTTCT and RPYL4EcoRIstop: […] TCT TCTTCTT, and the following conditions: 2 mM dGTP, dCTP and dTTP, 0.5 mM dATP, 12 mM MgCl2 and Taq polymerase. The PCR product was Ncol-EcoRI doubly digested, cloned into the pGBKT7 vector and DH10B cells were transformed by electroporation. Thus, we generated an allele library in E. coli of approximately 10,000 PYL4 mutant clones. […] The library was shuttled to yeast AH109 by co-transformation with pGAD7-PP2CA. Yeast transformants were pooled and clones able to grow in the absence of exogenous ABA in medium lacking histidine and adenine were selected. Yeast plasmids were extracted, sequenced and retransformed in yeast cells to recapitulate the phenotype. Protocols for yeast two hybrid assays were similar to those described previously (Saez et al., 2008).

PP2CA [7] = experiment: In vitro phosphatase activity assay with pNPP substrate, PP2CA; assay type: biochemical, Arabidopsis; details: absence of ABA
Method: (§1) Phosphatase activity was measured using as a substrate either pNPP or phosphorylated ΔC-ABF2, ΔC-ABI5 and SLAC11-186 proteins. For the pNPP substrate, assays were performed in a 100 μl solution containing 25 mM Tris-HCl pH 7.5, 2 mM MnCl2 and 5 mM pNPP. Assays contained 2 μM phosphatase (PP2CA or HAB1), 4 μM receptor and the indicated concentrations of ABA. Phosphatase activity was recorded with a ViktorX5 reader at 405 nm every 60 seconds over 30 minutes and the activity obtained after 30 minutes is indicated in the graphics. In order to obtain phosphorylated ΔCABF2, ΔC-ABI5 and SLAC11-186 proteins, OST1 phosphorylation assays were done basically as described previously (Dupeux et al., 2011 b). ΔC-ABF2 and SLAC11-186 N-terminal fragments were prepared as described (Antoni et al., 2012; Vahisalu et al., 2010). ΔC-ABI5 recombinant protein (amino acid residues 1-200, containing the C1, C2 and C3 target sites of ABA-activated SnRK2s) was expressed in the pETM11 vector as described above. The reaction mixture containing the OST1 kinase and either ΔCABF2, ΔC-ABI5 or SLAC11-186 recombinant proteins were incubated for 50 min at room temperature in 30 μl of kinase buffer: 20 mM Tris-HCl pH 7.8, 20 mM MgCl2, 2 mM MnCl2, and 3.5 μCi of γ-32ATP (3000 Ci/mmol). Thus, OST1 was autophosphorylated and in turn it phosphorylated ΔC-ABF2, ΔC-ABI5 and SLAC11-186 proteins. Next, they were used as substrates of PP2CA that was preincubated (or not) for 10 with PYL4 or PYL4A194T (1:10 phosphatase:receptor ratio) either in the absence or presence of 30 μM ABA. The reaction was stopped by adding Laemmli buffer and the proteins were separated by SDS-PAGE using an 8% acrylamide gel and transferred to an Immobilon-P membrane (Millipore). Radioactivity was detected and quantified using a Phosphorimage system (FLA5100, Fujifilm). After scanning, the same membrane was used for Ponceau staining. The data presented are averages of at least three independent experiments.

PP2CA [8] = target: T3, PP2CA (Arabidopsis thaliana, UniProt O80920+P49598, C176R/F130Y); experiment: as above; assay type: biochemical; details: presence of ABA
T3 construct: made in house; host or cells: E. coli BL21 (DE3)
Method: as §1

[9] = target: T1, PP2CA (clade A protein phosphatase 2C, …); experiment: yeast two-hybrid growth assay, presence of ABA
[10] = tested on: Arabidopsis thaliana plants; experiment: Seedling establishment and early seedling growth of OE lines on ABA; assay type: in vivo; details: 0.25 or 0.5 μM ABA
Source text: PYL4 or PYL4 mutants were cloned into pCR8/GW/TOPO entry vector (Invitrogen) and recombined by LR reaction into the gateway compatible ALLIGATOR2 vector (Bensmihen et al., 2004). This construct drives expression of PYL4 under control of the 35S CaMV promoter and introduces a triple HA epitope at the N-terminus of the protein. Selection of transgenic lines is based on the visualization of GFP in seeds, whose expression is driven by the specific seed promoter At2S3. The ALLIGATOR2-35S:3HA-PYL4 or mutant constructs were transferred to Agrobacterium tumefaciens C58C1 (pGV2260) (Deblaere et al., 1985) by electroporation and used to transform Columbia wild type plants by the floral dip method. T1 transgenic seeds were selected based on GFP visualization and sowed in soil to obtain the T2 generation. At least three independent transgenic lines were generated for each construct. Homozygous T3 progeny was used for further studies and expression of HA-tagged protein in 21-d-old seedlings was verified by immunoblot analysis using anti-HA-peroxidase (Roche).
After surface sterilization of the seeds, stratification was conducted in the dark at 4° C. for 3 d. Approximately 100 seeds of each genotype were sowed on MS plates supplemented with different ABA concentrations per experiment. To score seed germination, radical emergence was analyzed at 72 h after sowing. Seedling establishment was scored as the percentage of seeds that developed green expanded cotyledons and the first pair of true leaves at 7-d.

[11] = target: T1, PP2CA (clade A protein phosphatase 2C, …); experiment: yeast two-hybrid growth assay, absence of ABA
[12] = target: T4, PYL4H82R V97A (AtPYL H82 and V97A)
T4 chain: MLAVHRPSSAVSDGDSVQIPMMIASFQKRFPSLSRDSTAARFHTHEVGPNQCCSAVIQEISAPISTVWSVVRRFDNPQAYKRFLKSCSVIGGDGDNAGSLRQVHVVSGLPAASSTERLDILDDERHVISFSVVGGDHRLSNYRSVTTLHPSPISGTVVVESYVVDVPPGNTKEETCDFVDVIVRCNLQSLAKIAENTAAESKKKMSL

[13] = target: T5, PYL4C176R F130Y (AtPYL F130Y and C176R)
T5 chain: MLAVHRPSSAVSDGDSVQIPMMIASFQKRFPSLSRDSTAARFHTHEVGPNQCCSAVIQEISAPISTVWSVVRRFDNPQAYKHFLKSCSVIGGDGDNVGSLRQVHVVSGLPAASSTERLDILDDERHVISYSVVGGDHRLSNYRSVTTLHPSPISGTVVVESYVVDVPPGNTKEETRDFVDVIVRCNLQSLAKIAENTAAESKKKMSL

CC1=CC(=O)CC(C)(C)[C@@]1(O)/C=C/C(C)=C\C(=O)O [ABA, abscisic acid]
Kd [1]: 30 to 60 nM | Kd [2]: > 50000 nM | Kd [3]: ~1000 nM

B1: AtPYL4 wild type polypeptide (At2g38310) (receptor)
chain: MLAVHRPSSAVSDGDSVQIPMMIASFQKRFPSLSRDSTAARFHTHEVGPNQCCSAVIQEISAPISTVWSVVRRFDNPQAYKHFLKSCSVIGGDGDNVGSLRQVHVVSGLPAASSTERLDILDDERHVISFSVVGGDHRLSNYRSVTTLHPSPISGTVVVESYVVDVPPGNTKEETCDFVDVIVRCNLQSLAKIAENTAAESKKKMSL
IC50 of inhibition of PP2CA phosphatase activity (pNPP substrate; 2 µM phosphatase, 4 µM receptor, ABA concentration varied) [4]: 1 µM | IC50 of inhibition of HAB1 phosphatase activity (pNPP substrate; 2 µM phosphatase, 4 µM receptor, ABA concentration varied) [5]: 0.25 µM

B2: PYL4C176R F130Y: AtPYL4 mutant polypeptide with F130Y and C176R substitutions (SEQ ID NO. 63) (protein, listed as Arabidopsis thaliana)
chain: MLAVHRPSSAVSDGDSVQIPMMIASFQKRFPSLSRDSTAARFHTHEVGPNQCCSAVIQEISAPISTVWSVVRRFDNPQAYKHFLKSCSVIGGDGDNVGSLRQVHVVSGLPAASSTERLDILDDERHVISYSVVGGDHRLSNYRSVTTLHPSPISGTVVVESYVVDVPPGNTKEETRDFVDVIVRCNLQSLAKIAENTAAESKKKMSL
interaction with PP2CA in Y2H assay (PP2CA [6]): enhanced the interaction of PYL4 and PP2CA in the absence of ABA | effect on PP2CA activity (PP2CA [7]): did not affect PP2CA activity | capacity to inhibit PP2CA (PP2CA [8]): lower capacity to inhibit PP2CA

B3: PYL4V97A (AtPYL V97A) (receptor)
chain: MLAVHRPSSAVSDGDSVQIPMMIASFQKRFPSLSRDSTAARFHTHEVGPNQCCSAVIQEISAPISTVWSVVRRFDNPQAYKHFLKSCSVIGGDGDNAGSLRQVHVVSGLPAASSTERLDILDDERHVISFSVVGGDHRLSNYRSVTTLHPSPISGTVVVESYVVDVPPGNTKEETCDFVDVIVRCNLQSLAKIAENTAAESKKKMSL
binding result [9]: binds | interaction with PP2CA in Y2H assay (PP2CA [6]): did not affect the interaction in the absence of ABA | yeast growth in Y2H assay with PP2CA (PP2CA [6]; presence of ABA (50 μM)): increased yeast growth | ABA-mediated inhibition of seedling establishment [10]: enhanced ABA-mediated inhibition of seedling establishment compared to non-transformed plants

B4: PYL4C176R F130Y (AtPYL F130Y and C176R) (receptor)
chain: MLAVHRPSSAVSDGDSVQIPMMIASFQKRFPSLSRDSTAARFHTHEVGPNQCCSAVIQEISAPISTVWSVVRRFDNPQAYKHFLKSCSVIGGDGDNVGSLRQVHVVSGLPAASSTERLDILDDERHVISYSVVGGDHRLSNYRSVTTLHPSPISGTVVVESYVVDVPPGNTKEETRDFVDVIVRCNLQSLAKIAENTAAESKKKMSL
notes: also called F130Y C176R
binding result [11]: binds

B5: PP2CA (clade A protein phosphatase 2C, At3g11410) (protein)
chain: MAGICCGVVGETEPAAPVDSTSRASLRRRLDLLPSIKIVADSAVAPPLENCRKRQKRETVVLSTLPGNLDLDSNVRSENKKARSAVTNSNSVTEAESFFSDVPKIGTTSVCGRRRDMEDAVSIHPSFLQRNSENHHFYGVFDGHGCSHVAEKCRERLHDIVKKEVEVMASDEWTETMVKSFQKMDKEVSQRECNLVVNGATRSMKNSCRCELQSPQCDAVGSTAVVSVVTPEKIIVSNCGDSRAVLCRNGVAIPLSVDHKPDRPDELIRIQQAGGRVIYWDGARVLGVLAMSRAIGDNYLKPYVIPDPEVTVTDRTDEDECLILASDGLWDVVPNETACGVARMCLRGAGAGDDSDAAHNACSDAALLLTKLALARQSSDNVSVVVVDLRKRRNNQASS
PP2CA phosphatase activity (pNPP substrate) in the absence of ABA [12]: although the H82RV97A and F130Y C176R mutations promoted ABA-independent interactions in Y2H assay, they did not affect PP2CA activity in the absence of ABA | PP2CA phosphatase activity (pNPP substrate) in the absence of ABA [13]: although the H82RV97A and F130Y C176R mutations promoted ABA-independent interactions in Y2H assay, they did not affect PP2CA activity in the absence of ABA
